Reference: article PMC11227718

Legend:
[1] = cycloheximide chase, immunoblot
[2] = immunoblot of endogenous CCDC88C; settings: glycan lost; control: negative control siRNA
[3] = immunoblot of endogenous CCDC88C, BT549; settings: glycan gained; control: empty vector

Substance: Coiled-coil domain containing 88C (CCDC88C, Daple): si-GALNT6
- degradation_or_half_life ([1]; glycan lost, control: negative control siRNA): decreases
- expression_or_secretion [2]: decreases

Substance: Coiled-coil domain containing 88C (CCDC88C, Daple): GALNT6 overexpression
- degradation_or_half_life ([1]; glycan gained, control: empty vector): increases
- expression_or_secretion [3]: increases
